According to patent US20250043005A1 (GENEQUANTUM HEALTHCARE SUZHOU, published 2025):

B1: Recombinant hIL21R protein (receptor)
chain: not shown
notes: also called human IL21 receptor; Hu-IL21R

Columns and labels:
LC0030-1 = target: T1, LC0030-1 (Homo sapiens (Human), UniProt P0DOX7 1-214; P0DOX5 2-449 = IgG part); assay: ELISA, recombinant hIL21R coated at 0.5 ug/mL, detection with anti-human-IgG (H+L)-HRP, OD450
T1 construct: Antibody-cytokine fusion (immunocytokine) made by Sortase A conjugation; also called fusion protein prepared from Ab0030 containing one hIL21 (isoform 1); DAR1
Description: (§1) The binding activities of the fusion proteins to human IL21 receptor (hIL21R or Hu-IL21R) were determined using ELISA. Recombinant hIL21R protein were diluted using coating buffer (1×PBS) to 0.5 μg/mL and coated to an ELISA plate at 4° C. overnight. The plate was blocked with 5% slim milk powder in coating buffer at 37° C. for 1 h. […] Finally, 1:5000 diluted anti-human-IgG (H+L)-HRP was added. After an incubation at 37° C. for 1 h, TMB substrate was added for color development. The data was collected using a microplate reader.

[1] = target: T2, His-tagged human IL21R (hIL21R-His) (human, UniProt Q9HBE5 20-232, limits assumed); assay: SPR (Biacore T200), Ab0033 captured on Protein A chip, hIL21R-His as analyte
T2 construct: not shown: His tag
Description: (§2) The Biacore T200 biosensor is equipped with Sensor Chip Protein A. The proteins (diluted to 1 μg/mL) to be tested were injected at 10 μL/min into the Biacore T200 biosensor for 50 sec, in order to reach the required protein density (about 300 RU). Then His-tagged human IL21R (hIL21R-His, 200 nM) or human PD-L1 (hPD-L1-His, 100 nM) were injected at 30 μL/min into the system for 180 sec. The dissociation was monitored for 600 sec. After each cycle, glycine buffer pH 1.7 (30 μL/min, 30 sec) was used to regenerate the chip.

[2] = target: T3, Recombinant hPD-L1 protein (Acrobiosystems, PD1-H5253) (human, UniProt Q9NZQ7 19-238); assay: ELISA, recombinant hPD-L1 coated at 0.5 ug/mL, detection with anti-human-IgG (H+L)-HRP, OD450
T3 construct: also called human PD-L1
T3 sequence (Q9NZQ7 19-238 limits assumed): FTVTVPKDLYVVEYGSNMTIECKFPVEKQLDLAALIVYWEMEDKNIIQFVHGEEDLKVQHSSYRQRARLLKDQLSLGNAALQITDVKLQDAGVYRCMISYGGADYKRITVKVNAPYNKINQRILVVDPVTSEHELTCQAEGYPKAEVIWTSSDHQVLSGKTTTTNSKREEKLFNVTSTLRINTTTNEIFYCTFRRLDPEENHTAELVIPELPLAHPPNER
Description: Recombinant hPD-L1 was diluted in coating buffer (1×PBS) to 0.5 μg/mL and coated to an ELISA plate at 4° C. overnight. The plate was blocked with 5% slim milk powder in coating buffer at 37° C. for 1 h. […] Finally, 1:5000 diluted anti-human-IgG (H+L)-HRP was added. After an incubation at 37° C. for 1 h, TMB substrate was added for color development. The data was collected using a microplate reader.

[3] = target: T4, His-tagged human PD-L1 (hPD-L1-His) (human, UniProt Q9NZQ7 19-238, limits assumed); assay: SPR (Biacore T200), Ab0033 captured on Protein A chip, hPD-L1-His 100 nM as analyte, 1:1 Langmuir fit
T4 construct: not shown: His tag
T4 sequence (Q9NZQ7 19-238 limits assumed): as above
Description: as §2
Data were processed with Biacore T200 evaluation software 3.0. The binding kinetics were analyzed by globally fitting the data with the 1:1 Langmuir binding model to obtain the association rate (kₒₙ) and dissociation rate (koff). The affinity (KD) was calculated using the formula: KD=koff/kₒₙ.

[4] = target: B1; assay: ELISA, recombinant hIL21R coated at 0.5 ug/mL, detection with anti-human-IgG (H+L)-HRP, OD450
Description: as §1

[5] = target: T3, Recombinant hPD-L1 protein …; assay: ELISA, recombinant hPD-L1 (Acrobiosystems PD1-H5253) coated at 0.5 ug/mL, detection with anti-human-IgG (H+L)-HRP, OD450
Description: The binding activities of the fusion proteins to human PD-L1 (hPD-L1) were determined using ELISA. […] The plate was blocked with 5% slim milk powder in the coating buffer at 37° C. for 1 h. […] Finally, 1:5000 diluted anti-human-IgG (H+L)-HRP was added. After an incubation at 37° C. for 1 h, TMB substrate was added for color development. The data was collected using a microplate reader.

Row | binding result (LC0030-1) | binding result [1] | EC50 (read off the curve) [2] | Kd [3] | koff [3] | kon [3] | binding result [4] | EC50 (read off the curve) [5] | Binder
1 | binds |  |  |  |  |  |  |  | B1
2 |  | no binding (tested: 200 nM) | ~100 pM | 608 pM | 0.0012 s⁻¹ | 1.98e+06 M⁻¹ s⁻¹ | no binding (tested: about 40 nM) | ~80 pM | Ab0033 (antibody, human IgG1, kappa, N297A, V domains shown, Signal peptides are not part of the purified protein; also called antibody moiety Ab0033; derived from Ab0002 (3F2)) VH: QVQLQESGPGLVKPSETLSLTCTVSGYSITSGYNWHWIRQFPGNGLEWMGYIHHSSITNYNPSLKSRITISRDTSKNQFSLKLSSVTAADTATYYCAREGYDYDWFAYWGQGTLVTVSS VL: DIVLTQSPDFQSVTPKEKVTITCRASQSISNNLHWYQQKPDESPKLLIKYASQSISGIPSRFSGSGSGTDFTLTINSVEAEDFAMYFCQQSKSWPFTFGQGTRLEIKR
